# Patent US20100189695A1, “IRAK-1 AS REGULATOR OF DISEASES AND DISORDERS” (priority 2008, published 2010)
# Where a chain is given by its changes, count along the chain named. Names and notes keep the numbering of the source.
# B1: Interleukin-1 Receptor Associated Kinase-1 (protein)
# chain: MAGGPGPGEPVVPGAQHFLYEVPPWVMCRFYKVMDALEPADWCQFAALIVRDQTELRLCERSEQRTASVLWPWINRNARVADLVHILTHLQLLRARDIITAWHPPAPVVPPSTAAPRPSSISAGSEAGDWSPRKLQSSASTFLSPAFPGSQTHSESELLQVPLPVSLGPPLPSSAPSSTKSSPESPVSGLQRAHPSPFCWPFCEISQGTCNFSEELRIGEGGFGCVYRAVMRNTTYAVKRLKEEADLEWTMVKQSFLTEVEQLSRFRHPNIVDFAGYCAESGLYCLVYGFLPNGSLEDQLHLQTQACSPLSWPQRLDILLGTARAIQFLHQDSPSLIHGDIKSSNVLLDERLMPKLGDFGLARFSRFAGAKASQSSTVARTSTVRGTLAYLPEEYIKTGRLAVDTDTFSFGVVILETLAGQRAVRTQGAKTKYLKDLIEDEAEEAGVTLKSTQPTLWVGVATDAWAAPIAAQIYKKHLDSRPGPCPPQLGLALAQLACCCMHRRAKKRPPMTQVYKRLEGLQAGPPWELEVAGHGSPSPQENSYMSTTGSAQSGDEPWQPLVVTTRAPAQAAQQLQRSPNQPVESDESVPGLSATLHSWHLTPGSHPSPASFREASCTQGGTTRESSVRSSPGFQPTTMEGSPTGSSSLLSSEPPQIIINPARQKMVQKLALYEEGVLDSLQLLSSGFFPGLDLEPEKSQGPEESDEFQS
# B2: IRAK-1b: isoform of IRAK-1 that does not possess kinase activity (protein)
# chain: MAGGPGPGEPAAPGAQHFLYEVPPWVMCRFYKVMDALEPADWCQFAALIVRDQTELRLCERSGQRTASVLWPWINRNARVADLVHILTHLQLLRARDIITAWHPPAPLPSPGTTAPRPSSIPAPAEAEAWSPRKLPSSASTFLSPAFPGSQTHSGPELGLVPSPASLWPPPPSPAPSSTKPGPESSVSLLQGARPFPFCWPLCEISRGTHNFSEELKIGEGGFGCVYRAVMRNTVYAVKRLKENADLEWTAVKQSFLTEVEQLSRFRHPNIVDFAGYCAQNGFYCLVYGFLPNGSLEDRLHCQTQACPPLSWPQRLDILLGTARAIQFLHQDSPSLIHGDIKSSNVLLDERLTPKLGDFGLARFSRFAGSSPSQSSMVARTQTVRGTLAYLPEEYIKTGRLAVDTDTFSFGVVVLETLAGQRAVKTHGARTKYLKDLVEEEAEEAGVALRSTQSTLQAGLAADAWAAPIAMQIYKKHLDPRPGPCPPELGLGLGQLACCCLHRRAKRRPPMTQENSYVSSTGRAHSGAAPWQPLAAPSGASAQAAEQLQRGPNQPVESDESLGGLSAALRSWHLTPSCPLDPAPLREAGCPQGDTAGESSWGSGPGSRPTAVEGLALGSSASSSSEPPQIIINPARQKMVQKLALYEDGALDSLQLLSSSSLPGLGLEQDRQGPEESDEFQS
# B3: IRAK-M: a homologue of IRAK-1 (protein)
# chain: MAGNCGARGALSAHTLLFDLPPALLGELCAVLDSCDGALGWRGLAERLSSSWLDVRHIEKYVDQGKSGTRELLWSWAQKNKTIGDLLQVLQEMGHRRAIHLITNYGAVLSPSEKSYQEGGFPNILFKETANVTVDNVLIPEHNEKGILLKSSISFQNIIEGTRNFHKDFLIGEGEIFEVYRVEIQNLTYAVKLFKQEKKMQCKKHWKRFLSELEVLLLFHHPNILELAAYFTETEKFCLIYPYMRNGTLFDRLQCVGDTAPLPWHIRIGILIGISKAIHYLHNVQPCSVICGSISSANILLDDQFQPKLTDFAMAHFRSHLEHQSCTINMTSSSSKHLWYMPEEYIRQGKLSIKTDVYSFGIVIMEVLTGCRVVLDDPKHIQLRDLLRELMEKRGLDSCLSFLDKKVPPCPRNFSAKLFCLAGRCAATRAKLRPSMDEVLNTLESTQASLYFAEDPPTSLKSFRCPSPLFLENVPSIPVEDDESQNNNLLPSDEGLRIDRMTQKTPFECSQSEVMFLSLDKKPESKRNEEACNMPSSSCEESWFPKYIVPSQDLRPYKVNIDPSSEAPGHSCRSRPVESSCSSKFSWDEYEQYKKE
# B4: D340N: mutated IRAK-1 molecule, mutation present in human patients with cardiovascular diseases (protein, UniProt P51617 1-712, looked up, variant D340N)
# Interleukin-1 …: MAGGPGPGEPAAPGAQHFLYEVPPWVMCRFYKVMDALEPADWCQFAALIVRDQTELRLCERSGQRTASVLWPWINRNARVADLVHILTHLQLLRARDIITAWHPPAPLPSPGTTAPRPSSIPAPAEAEAWSPRKLPSSASTFLSPAFPGSQTHSGPELGLVPSPASLWPPPPSPAPSSTKPGPESSVSLLQGARPFPFCWPLCEISRGTHNFSEELKIGEGGFGCVYRAVMRNTVYAVKRLKENADLEWTAVKQSFLTEVEQLSRFRHPNIVDFAGYCAQNGFYCLVYGFLPNGSLEDRLHCQTQACPPLSWPQRLDILLGTARAIQFLHQDSPSLIHGNIKSSNVLLDERLTPKLGDFGLARFSRFAGSSPSQSSMVARTQTVRGTLAYLPEEYIKTGRLAVDTDTFSFGVVVLETLAGQRAVKTHGARTKYLKDLVEEEAEEAGVALRSTQSTLQAGLAADAWAAPIAMQIYKKHLDPRPGPCPPELGLGLGQLACCCLHRRAKRRPPMTQVYERLEKLQAVVAGVPGHSEAASCIPPSPQENSYVSSTGRAHSGAAPWQPLAAPSGASAQAAEQLQRGPNQPVESDESLGGLSAALRSWHLTPSCPLDPAPLREAGCPQGDTAGESSWGSGPGSRPTAVEGLALGSSASSSSEPPQIIINPARQKMVQKLALYEDGALDSLQLLSSSSLPGLGLEQDRQGPEESDEFQS
# B5: C203S: mutated IRAK-1 molecule, mutation present in human patients with cardiovascular diseases (protein, UniProt P51617 1-712, looked up, variant C203S)
# Interleukin-1 …: B4 Interleukin-1 … with C203S, N340D
# B6: T113I: mutated IRAK-1 molecule, mutation present in human patients with cardiovascular diseases (protein, UniProt P51617 1-712, looked up, variant T113I)
# Interleukin-1 …: B4 Interleukin-1 … with T113I, N340D
# B7: IRAK-1-ΔC: truncated version of IRAK-1 with deletion of the C terminal region (amino acids 548 to 712 are deleted) (protein, UniProt P51617 1-547, looked up, fragment)
# chain: MAGGPGPGEPAAPGAQHFLYEVPPWVMCRFYKVMDALEPADWCQFAALIVRDQTELRLCERSGQRTASVLWPWINRNARVADLVHILTHLQLLRARDIITAWHPPAPLPSPGTTAPRPSSIPAPAEAEAWSPRKLPSSASTFLSPAFPGSQTHSGPELGLVPSPASLWPPPPSPAPSSTKPGPESSVSLLQGARPFPFCWPLCEISRGTHNFSEELKIGEGGFGCVYRAVMRNTVYAVKRLKENADLEWTAVKQSFLTEVEQLSRFRHPNIVDFAGYCAQNGFYCLVYGFLPNGSLEDRLHCQTQACPPLSWPQRLDILLGTARAIQFLHQDSPSLIHGDIKSSNVLLDERLTPKLGDFGLARFSRFAGSSPSQSSMVARTQTVRGTLAYLPEEYIKTGRLAVDTDTFSFGVVVLETLAGQRAVKTHGARTKYLKDLVEEEAEEAGVALRSTQSTLQAGLAADAWAAPIAMQIYKKHLDPRPGPCPPELGLGLGQLACCCLHRRAKRRPPMTQVYERLEKLQAVVAGVPGHSEAASCIPPSPQENSY
# Test system: NFAT
# Experiment: Co-immunoprecipitation of Flag-IRAK-1 constructs with NFAT in transfected Hela cells
# Type: binding, human
# Conditions: anti-Flag IP, anti-NFAT Western blot
# Procedure: To further delineate which part of IRAK-1 is involved in its interaction with NFAT, experiments were performed using full-length IRAK-1 and a C-terminally truncated form (IRAK-1ΔC—see FIG. 1). Specifically, Hela cells were transfected with IRAK-1 encoding plasmids that express either the full length wild type human IRAK-1 protein or a truncated version of IRAK-1 with deletion of the C terminal region (amino acids 548 to 712 are deleted). Equal amount of cell lysates were harvested from the transfected cells and used to perform co-immunoprecipitation assays with an anti-Flag antibody. Immunoprecipitated proteins were resolved by electrophoresis, and the co-immunoprecipitated proteins were subjected to Western blot analyses using an anti-NFAT antibody.
row,Molecule,co-immunoprecipitation with NFAT
1,B1,capable of co-immunoprecipitating with NFAT

# Test system: NFAT
# Experiment: NFAT responsive element luciferase reporter assay in transfected Hela cells
# Type: cell-based, human
# Conditions: co-transfection of expression plasmid with NFAT reporter
# Description: NFAT family transcription factors play critical roles in the pathogenesis of cardiovascular diseases, including hypertension and atherosclerosis. […] First, human Hela cells were trasfected with either empty vector plasmid or wild type IRAK-1 expression plasmid together with a NFAT responsive element-containing luciferase reporter plasmid. […] Subsequently, plasmids that express mutated IRAK-1 molecules (D340N, C203S, T113I, mutations which are present in human patients with cardiovascular diseases) have been generated.
# Further experiments were performed to ask whether the C-terminal domain of IRAK-1 is involved in facilitating its suppressive regulatory function toward NFAT activity. […] Statistical significance was calculated using a t-Test for two-samples assuming unequal variances and p-values are as indicated.
# In order to determine the mechanism for IRAK-1 involvement, transcription factor reporter assays were performed. In this set of experiments, NFAT reporter activity was determined in the presence of IRAK-1 or IRAK-M, a homologue of IRAK-1 (FIG. 10).
row,Molecule,suppression of NFAT reporter activity
1,B2,cannot fulfill the inhibitory function on NFAT
2,B3,did not show suppression of NFAT
3,B1,suppression of NFAT by IRAK-1 could be seen
4,B4,failed to suppress NFAT activity
5,B5,failed to suppress NFAT activity
6,B6,failed to suppress NFAT activity
7,B7,failed to suppress NFAT activity

# Same assay, conditions: co-transfection with NFAT-luciferase reporter plasmid, Hela cells; control adjusted to 100%
row,Molecule,reduction of NFAT reporter luciferase activity compared with the control transfection [%]
1,B1,−80
